PMC1075921 (Nucleic Acids Research, 2005)
Changes are numbered by the printed parent chain. In names and notes the source's numbering stands.

B1: hRPA70_(1–168) Y118A mutant (domain or fragment)
chain: MVGQLSEGAIAAIMQKGDTNIKPILQVINIRPITTGNSPPRYRLLMSDGLNTLSSFMLATQLNPLVEEEQLSSNCVCQIHRFIVNTLKDGRRVVILMELEVLKSAEAVGVKIGNPVPANEGLGQPQVAPPAPAASPAASSRPQPQNGSSGMGSTVSKAYGASKTFGKA
B2: hRPA70_(1–168) R41E mutant (domain or fragment)
chain: B1 chain with R41E, A118Y

Target: transactivation domain of human p53 (residues 1–73) (human, UniProt P04637 1-73, R72)
Assay: NMR titration

Row | Binder | mean intensity ratio (free/with partner) of p53TAD residues 42–56 | intensity ratio (free/with partner) of all p53TAD residues except I50-F54 | mean intensity ratio (free/with partner) of p53TAD residues I50-F54
1 | B1 | 35 ± 34 | – | –
2 | B2 | – | < 2 | 3.3 ± 1.7
